The results in this text go back to the DeepSol protein solubility set.

A short description of the series: soluble on expression in E. coli; label from the status in PepcDB or PDB records.
Turning to “GMEEINKYIQNSSETGGEIYNLIEELFPICRSITGNGVRKTMDIIRKHIPLEIHEVKSGTKVFDWTVPKEWNIKDAYVRNSKGEKVIDFKENNLHVMSYSVPVHKTMTLDELKPYLHTIPGNKDRIPYLTSYYKENWGFSLTQNKFDELCDDDYEVVIDSSLEDGSLTYGEYYIRGELEEEILLTTYTCHPSMCNDNLSGVALITFIAKALSKLKTKYSYRFLFAPETIGSITWLSRNEDKLKNIKMGLVATCVGDAGIKNYKRTKFGDAEIDKIVEKVLMHCGSEYYVADFFPWGSDERQFSSPGINLSVGSLMRSCYGFDGYHTSADNLCYMNKDGLADSYKTYLEVIYTIENNRTYLNLNPKCEPQLGKRGIYRMIGGGSDYPFDEFAMFWVLNMSDGKNSLLDIAYKSGMEFRRIKYAADALYRVELLKLV”, the “soluble on expression in E. coli” value is reported as “soluble”.
“GMEQHQVWAYQTKTHSVTLNSVDIPALAADDILVQNQAIGINPVDWKFIKANPINWSNGHVPGVDGAGVIVKVGAKVDSKMLGRRVAYHTSLKRHGSFAEFTVLNTDRVMTLPDNLSFERAAALPCPLLTAWQAFEKIPLTKQREVLIVGFGAVNNLLTQMLNNAGYVVDLVSASLSQALAAKRGVRHLYREPSQVTQKYFAIFDAVNSQNAAALVPSLKANGHIICIQDRIPAPIDPAFTRTISYHEIALGALHDFGDRQDWQILMQQGEALLTLIAQGKMEIAAPDIFRFEQMIEALDHSEQTKLKTVLTLNE”: the “soluble on expression in E. coli” value is listed as “soluble”.
To “GMEVNRLSALTPPMGWNSWDCYGASVTEEEVLGNAEYMANHLKKYGWEYIVVDIQWYEPTANSSAYNPFAPLCMDEYGRLLPATNRFPSAKNGAGFKPLSDAIHDLGLKFGIHIMRGIPRQAVYENSPVLGSTKTAREIAHTNSICPWNTDMYGVDPTKEGAQSYYNSLFELYAQWGVDFVKVDDIAASRLYDTHLEEIKMIQRAIQACGRPMVLSLSPGPAPIKYAHHFKTNANMWRITDDFWDDWSLLYQMFERCEVWEKHIGTGHWPDCGMLPLGHIGIRSVDGPGGDRWTRFTKDEQLTMMNLWAICHSPLMFGGELRDNDEWTLSLLTNEGILSINQKSVLNRFVYREEDKVAWAANGRNGEAYVALFNLHDQQKTLQFRLDMVGIMETVQLFNVWDRSFLQSLAPSESFQIELKPHQSMMLKLSPDR” belongs “soluble”; to “GMFVSDQAEAKGFIEDSSLDLLLRNYYFNRDGKSGSGDRVDWTQGFLTTYESGFTQGTVGFGVDAFGYLGLKLDGTSDKTGTGNLPVMNDGKPRDDYSRAGGAVKVRISKTMLKWGEMQPTAPVFAAGGSRLFPQTATGFQLQSSEFEGLDLEAGHFTEGKEPTTVKSRGELYATYAGETAKSADFIGGRYAITDNLSASLYGAELEDIYRQYYLNSNYTIPLASDQSLGFDFNIYRTNDEGKAKAGDISNTTWSLAAAYTLDAHTFTLAYQKVHGDQPFDYIGFGRNGSGAGGDSIFLANSVQYSDFNGPGEKSWQARYDLNLASYGVPGLTFMVRYINGKDIDGTKMSDNNVGYKNYGYGEDGKHHETNLEAKYVVQSGPAKDLSFRIRQAWHRANADQGEGDQNEFRLIVDYPLSILHHHHHHHH”, “soluble”; to “GMIKIAIVGFGTVGQGVAELLIRKREEIEKAIGEFKVTAVADSKSSISGDFSLVEALRMKRETGMLRDDAKAIEVVRSADYDVLIEASVTRVDGGEGVNYIREALKRGKHVVTSNKGPLVAEFHGLMSLAERNGVRLMYEATVGGAMPVVKLAKRYLALCEIESVKGIFNGTCNYILSRMEEERLPYEHILKEAQELGYAEADPSYDVEGIDAALKLVIIANTIGVKASYEDVEVTGITQITPEAFQVAAEKGYTIRLIAEVSREKLKVSPRLVPFHHPLAIKGTMNAAMFKTDTAGSIFVAGRGAGKEETASAILSDLYEIYAGPR”, “soluble”.
The same measure for “GMIKKEGPGWRIIFDSSRDNFSTLIGGETWAIELDKSEWKILVEVVMELCDQYKLVKEQLMGDEDITLELERRPWLAILNGDQYGWNLRLILSASGLFNRGAEVYWPRHVTNNVVNAMRSMWDSDYL”: “soluble”.
The same measure for “GMKDNYDAPESMLTGRVMYNGEALQLRGNEAVQLQLYQHGYAKHDPINVYVNQDGMYSANLFDGEYQMITKSGNGPWTSEGRDTINVTVAGNTVQDVEVTPYYLVRDAQMTLEGNKVNASFKVEKVAGGGIDRVFFMLSTTQFVNDAEHNVDRYDETDNLDAYDETGKLYTFATRDYTDNSMFQTALKRGTLFGRICIWPKGSDQGIYSKVIRLK”: “soluble”; for “GMKRAVVVFSGGQDSTTCLIQALQDYDDVHCITFDYGQRHRAEIEVAQELSQKLGAAAHKVLDVGLLNELATSSLTRDSIPVPDYDANAQGIPNTFVPGRNILFLTLASIYAYQVGAEAVITGVCETDFSGYPDCRDEFVKALNQAIVLGIARDIRFETPLMWLNKAETWALADYYQQLDTVRYHTLTCYNGIKGDGCGQCAACHLRANGLAQYQKDAATVMASLKQKVGLR”: “soluble”.
Take “GMLEFTKRSLMNKYNINERVLELYERALNDVEKEFKYYDEIREYNQLKVLKAFQEERISESHFTNSSGYGYNDIGRDSLDRVYANIFNTESAFVRPHFVNGTHAIGAALFGNLRPNDTMMSICGMPYDTLHDIIGMDDSKKVGSLREYGVKYKMVDLKDGKVDINTVKEELKKDDSIKLIHIQRSTGYGWRKSLRIAEIAEIIKSIREVNENVIVFVDNCYGEFVEEKEPTDVGADIIAGSLIKNIGGGIATTGGYIAGKEEYVTQATFRVTVPGIGGECGSTFGVMRSLYEGLFMAPHVTIEAVKGAVFCARIMELAGFDVLPKYNDKRTDIIQAIKFNDEKKLIDFIKGIQTASPVDSFVQCEAWDMPGYEDKVIMAAGTFVQGASIELSADAPIREPYIGYLQGGLTFDHAKLGVLIALSKLIM”: the “soluble on expression in E. coli” value is given as “soluble”.
For the sequence “GMNLQTDQTTTTADESAIRAFHRQMIDAWNRGSGEGFAAPFSETADFITFEGTHLKGRKEIAAFHQQAFDTVVKGTRLEGEVDFVRFVNSQLALMLVVIRVILPGQTETSASRDSLPLYVVTKGDEGWQIEGLLNTRKLTLERQFFLDDFDSLSAEAQRQVTDLVASLKQSH”, the “soluble on expression in E. coli” value is “soluble”.
Turning to “GMNNSLAFNHDTLPQKVMFGYGKSSAFLKQEVERRGSAKVMVIAGEREMSIAHKVASEIEVAIWHDEVVMHVPIEVAERARAVATDNEIDLLVCVGGGSTIGLAKAIAMTTALPIVAIPTTYAGSEATNVWGLTEAARKTTGVDLKVLPETVIYDSELTMSLPVEMSVASGLNGLAHCIDSLWGPNADPINAVLAAEGIRALNQGLPKIVANPHSIEGRDEALYGAYLAAVSFASAGSGLHHKICHTLGGTFNLPHAQTHATVLPYVLAFNAGDAPEAERRAAAAFGTDTALEGLQRLRLSVNAPKRLSDYGFEASGIAEAVDVTLEKVPANNPRPVTRENLSRLLEAALNGEDPAVLSAVLSN”, the “soluble on expression in E. coli” value is given as “soluble”.
As to “GMPSEKQPQSKGNKMAILKLDEHLYISPQLTKADAEQIAQLGIKTIICNRPDREEESQPDFAQIKQWLEQAGVTGFHHQPVTARDIQKHDVETFRQLIGQAEYPVLAYCRTGTRCSLLWGFRRAAEGMPVDEIIRRAQAAGVNLENFRERLDNARV”, the “soluble on expression in E. coli” value is recorded as “soluble”.
“GMSDIKKLGSSWIINWFFGFNQIPTNEDSSIYMKSVLTCAKADGVISPEEKDWALGFCASWGVADWVIEDLKTYEADEALEEVIARSPQVSMAQRDILLSAIWVSAADGELHEKEKAKIRKMATILGIKEEIVDQLEQLYYYEAALRQKRLNLLYPQKSPY”: the “soluble on expression in E. coli” value was “soluble”.
To “GMSEPVFPTPEAAEDAFYAAFEARSLDDMMAVWARDDHVACIHPLAAPLNGRAAVAAGWRSMFGAAGRFRLQVKAVHEIRQADHVIRIVDEFLTIGDETAPRPAILATNVYRREADGWRMVLHHASPLQVGAKAGADTPPVVFH” belongs “soluble”.
For the sequence “GMSRAPDTWILTADCPSMLGTVDVVTRYLFEQRCYVTEHHSFDDRQSGRFFIRVEFRQPDDFDEAGFRAGLAERSEAFGMAFELTAPNHRPKVVIMVSKADHCLNDLLYRQRIGQLGMDVVAVVSNHPDLEPLAHWHKIPYYHFALDPKDKPGQERKVLQVIEETGAELVILARYMQVLSPELCRRLDGWAINIHHSLLPGFKGAKPYHQAYNKGVKMVGATAHYINNDLDEGPIIAQGVEVVDHSHYPEDLIAKGRDIECLTLARAVGYHIERRVFLNANRTVVL”, the “soluble on expression in E. coli” value is reported as “soluble”.
In the case of “GMTARNILSYSYEEYVEKITAFHGYPAPGVLIGGFMVDLAVKNLPEGILYDAICETRTCLPDAVQLLTPCTFGNGWLTVLPMGLFAVSLYDKFTGEGVRVFLDVEKMGPWQEIRNWFLKLKTKKEQDSERLFKEIREAGPDILELRNVKLKPGFLEKKHKGKIVLCPQCREAYPAQDGELCLSCQGGSPYL”, the “soluble on expression in E. coli” value was “soluble”.
With “GMTQDNASGDQVSKQHKAFLRKLYLAHLMDDARHNLLSLGKLTGMPRRTLQDAIASFADIGIEVEFVQDGERHNAGYYRIRTWGPISSAWMDTHVDEVKSLLGVDDAVGQATAGNGA”, the “soluble on expression in E. coli” value is given as “soluble”.
On to “GMTQKEWPLWEVFVRSKQGLEHKHCGSLHATDAQQALHMARDVYTRRQEGVSIWVVPSTAITASAPEEKPELFDPMADKIYRHPTFYQLPDEVNHM”, for which the “soluble on expression in E. coli” value was “soluble”.
In the case of “GMTVRDENYFTEKYGLTRTHSDVLAAAKVVAPGRTLDLGCGNGRNSLYLAANGYDVTAWDKNPASMANLERIKAAEGLDNLQTDLVDLNTLTFDGEYDFILSTVVMMFLEAQTIPGLIANMQRCTKPGGYNLIVAAMDTPDFPCTVGFPFAFKEGELRRYYEGWDMLKYNEDVGELHRTDENGNRIKLRFATMLARKTA”, the “soluble on expression in E. coli” value is reported as “soluble”.
Take “GMVRRTRAEMEETRATLLATARKVFSERGYADTSMDDLTAQASLTRGALYHHFGDKKGLLAAVVEQIDAEMDERLQAISDTAEDDWEGFRCRCRAYLEMALEPEIQRIVLRDARAVLGGASPDSQRHCVESMQRLIDNLIRQGVVAEADPQALASLIYGSLAEAAFWIAEGEDGNARLAQGVAALELLLRGLLVKPR”: the “soluble on expression in E. coli” value was “soluble”.
Turning to “GMWQFPLFETILIEQGQAKNISYHQQRYEKSLLKFYPKMKLQPFDLAKIIAKHTALFTHREGLIRCRIDYNHHDYVLQCFPYQQKVYRTFKPVFCDHIDYSLKFSDRTLLNNLLKQKEECDEIMIIRQGKVTDCSIGNLIFRQNNQWITPDKPLLEGTQRAKLLEQKKIIAREIFFEDLAQYEEIRLINAMNGL”, the “soluble on expression in E. coli” value is given as “soluble”.
Regarding “GNFTYAHSEFLKYEEPAYNEKYRSHIGQSLNQWYGLIAERLFIDEYDVQNSPKQTFGEYGAGDIKYRDVNGDGQITDADMVPLGYPTVPEIVYGFGFSFGNQRFDISAFFQGSARSSFWIDAKATSPFQHINPTDDDPYHQDIPLLKAYANDHWSESNRNLYAMWPRLSTTVIENNVRTSSWFMRNGAFLRLKTLEVGYTLPESWTKKAYISSARVYCSGNNLLLLSGFKLWDIEMGGSGLGYPIQRVINLGVQINF”, the “soluble on expression in E. coli” value is recorded as “not soluble”.
With “GPASQHFLSTSVQGPWERAISPNKVPYYINHETQTTCWDHPKMTELYQSLADLNNVRFSAYRTAMKLRRLQKALCLDLLSLSAACDALDQHNLKQNDQPMDILQIINCLTTIYDRLEQEHNNLVNVPLCVDMCLNWLLNVYDTGRTGRIRVLSFKTGIISLCKAHLEDKYRYLFKQVASSTGFCDQRRLGLLLHDSIQIPRQLGEVASFGGSNIEPSVRSCFQFANNKPEIEAALFLDWMRLEPQSMVWLPVLHRVAAAET”, the “soluble on expression in E. coli” value is on record as “soluble”.
Regarding “GPGSFIDPPSDQGMSDAFYQLLYFGAVDDGLQLTDFGRRMAVLPVDVCLARMLLMAPKHGCGADAAVVAAMLEAGNAFSRPPSRLAEAREAHARFDNADGDHVALFRVFHAYFKNQQNGKRFCYENYLRHQTLQQAVQVYKQLRRLMSQLMIPVQSTYIPEREYVDTVALRKAVLEGFFTQVAFLTPVAPITH”, the “soluble on expression in E. coli” value is recorded as “not soluble”.
